Biological target: hTEM8-AP (UniProt Q9H6X2)
Experiment: Biacore affinity measurement, Fab

UniProt Q9H6X2, sequence (Q9H6X2 33-321): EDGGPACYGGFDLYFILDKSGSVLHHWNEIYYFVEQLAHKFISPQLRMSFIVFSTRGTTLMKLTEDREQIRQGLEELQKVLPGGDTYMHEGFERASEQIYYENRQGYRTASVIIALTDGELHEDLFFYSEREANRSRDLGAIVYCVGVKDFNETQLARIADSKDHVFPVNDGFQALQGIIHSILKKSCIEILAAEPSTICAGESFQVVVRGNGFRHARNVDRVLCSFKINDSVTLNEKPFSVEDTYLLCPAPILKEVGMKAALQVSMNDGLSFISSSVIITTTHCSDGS

- Kd: 0.0591 nM
- koff: 0.00018 s⁻¹
- kon: 3.05e+06 M⁻¹ s⁻¹
B1: M825 anti-TEM8 Fab (Fab, V domains shown)
VH: QVQLVQSGAEVKKPGTSVKVSCKVPGYTFSSYAISWVRQAPGQGLEWMGGIIPIFGTTNYAQKFQGRVTITGEESTSTVYMELSSLRSEDTAVYYCARDTDYMFDYWGQGTLVTVSS
VL: SSELTQDPVVSVALGETVSITCQGDNLRDFYASWYQQKPGQAPLLVMYGKNRRPSGIPDRFSGSTSGNTLSLTITGAQAEDEADYYCSSRDNSKHVVFGGGTKVTVL
